Source: US20240052039A1

Target: recombinant α4β1 integrin (R&D Systems) (UniProt P13612)
Assay: ELISA, recombinant α4β1 immobilised; reference is the anti-VLA-4 scFv

Fab of Natalizumab
fold ELISA signal against scFv: 10 times
